Results published in paper PMC6208404, “Calcium sensing by the STIM1 ER-luminal domain” (Nature Communications, 2018).

Target: the molecule itself
Experiment: FRET or BRET; in vitro; purified protein randomly labelled with fluorescein (donor) and Alexa Fluor 594 (acceptor) at an engineered N-terminal cysteine; 250 nM protein, 22 °C, excitation 420 nm; Chelex-treated Ca2+-free buffer, FRET reduced as Ca2+ was added

B1: single-cysteine EFSAM-GrpE (CGG-EFSAM(58-209)-linker-GrpE(1-171)), labelled with fluorescein and/or Alexa Fluor 594 (other, mouse | Thermus thermophilus HB8)
chain: CGGSEDEKLSFEAVRNIHKLMDDDANGDVDVEESDEFLREDLNYHDPTVKHSTFHGEDKLISVEDLWKAWKSSEVYNWTVDEVIQWLITYVELPQYEETFRKLQLTGHAMPRLAVTNTTMTGTVLKMTDRSHRQKLQLKALDTVLFGPPLLTRHNLELSRANSSTLAAVTSGSELMEERNHENTLEKDLEAVGQEAQALEERLKAAEEELKGLKDKYLRLLADFDNYRKRMEEELKAREREGVLKALRALLPVLDDLDRALEFAEASPESIRQGVRAIRDGFFRILAGLGVEEVPGEGEAFDPRYHEAVGLLPGEPGKVAKVFQRGFRMGEALVRPARVAVGEEKR
modifications: fluorescein-5-maleimide or Alexa Fluor 594 C5 maleimide on the engineered N-terminal cysteine (random labelling, ~0.8-0.9:1 fluorophore to protein)
notes: engineered stretch with the single cysteine, immediately N-terminal to EFSAM residue 58; STIM1 ER-luminal EFSAM domain, mouse, residues 58-209; linker between EFSAM and GrpE; GrpE, Thermus thermophilus HB8, residues 1-171 (nucleotides 2222-2734 of GenBank AB012390.1); also called double-labelled EFSAM-GrpE; donor/acceptor-labelled EFSAM-GrpE; source: E. coli BL21, purified (Ni-NTA, Superdex 200 …)
binding result: binds
